PMC2148129
Like-named read-outs stand apart in the source and are kept apart here.

Legend:
[1] = biological target: peripheral node addressin; assay: parallel plate laminar flow chamber, duration of transient cell tethers
[2] = biological target: peripheral node addressin; assay: as above; remark: listed apart in the source

transient tether lifetime [1]: 0.057 s
transient tether lifetime [2]: 0.087 s
B1: L-selectin (receptor)
chain: WTYHYSEKPMNWQRARRFCRDNYTDLVAIQNKAEIEYLEKTLPFSRSYYWIGIRKIGGIWTWVGTNKSLTEEAENWGDGEPNNKKNKEDCVEIYIKRNKDAGKWNDDACHKLKAALCYTASCQPWSCSGHGECVEIINNYTCNCDVGYYGPQCQFVIQCEPLEAPELGTMDCTHPLGNFSFSSQCAFSCSEGTNLTGIEETTCGPFGNWSSPEPTCQVIQCEPLSAPDLGIMNCSHPLASFSFTSACTFICSEGTELIGKKKTICESSGIWSNPSPICQKLDKSFSMIKEGDYNPLFIPVAVMVTAFSGLAFIIWLARRLKKGKKSKRSMNDPY
